Reference: patent US7303876B2 (Applera Corporation, priority 2000, dated 2007)

Tests used:
slices of liver = test: Maceration of liver slices by reaction compositions at 65° C.; conditions: 65° C.; for maceration of liver slice: 1 mg/ml Proteinase K, No Additives
Description: Initially, a series of reaction compositions were analyzed for their ability to disaggregate a biological sample, e.g., slices of liver. These reaction compositions comprised 100 mM Tris, pH 8.0, 20 mM dithiothreitol (DTT), and optionally,1 mg/ml Proteinase K, surfactants (e.g., cationic, nonionic and anionic detergents), chaotropes, or the additive 1-methyl-2-pyrollidinone (Sigma). Each reaction compositions was placed in a tube with a slice of liver and then incubated at 65° C. The tubes were observed periodically to determine which reaction compositions were able to efficiently macerate the sample.

[1] = system: BoDipy-labeled Casein Conjugate; test: Proteinase K digestion of BoDipy-labeled Casein Conjugate (fluorescence); assay type: biochemical; conditions: one hour, 60° C.
Description: An assay was developed to measure the activity of Proteinase K with BoDipy-labeled Casein Conjugate (Enz Check Protease Assay Kit, Product number E6638; Molecular Probes, Eugene, Oreg.). The concentration of fluorescent BoDipy moieties in this derivatized conjugate is sufficiently high so that when the protein is intact, the fluorescence of individual moieties is quenched. Upon digestion of the derivatized casein by a protease, however, peptides containing a lower number of BoDipy dye molecules are released, resulting in an increase in fluorescence. To determine an initial dynamic range for an assay, BoDipy-labeled Casein was digested for one hour with a decreasing concentration of Proteinase K as follows. […] Following a one hour incubation at 60° C. with mixing, 100 μL aliquots were transferred to a 96-well optical plate (MicroAmp® Optical 96-Well Reaction Plate, Applied Biosystems, Foster City, Calif.) and the fluorescence was measured in an ABI Prism 7700 spectrophotometer (Applied Biosystems). The background fluorescence was determined by incubating the substrate in buffer without Proteinase K.

Proteinase K = molecular target: T1, Proteinase K (Parengyodontium album, UniProt P06873); test: Effect of surfactants on Proteinase K digestion of dye-labeled casein substrate; assay type: biochemical; conditions: water, 0 minutes incubation, ambient temperature
T1 construct: purchased Ambion 2546
Description: To test the effect of cationic surfactants on the activity of Proteinase K, a series of reaction compositions were prepared as follows. Reaction compositions comprised: Casein BoDipy conjugate (1 μg, 10 ng/μL), 10 mM Tris, pH 8, 20 mM CaCl2, 1% surfactant (shown in Table 2 below) and a dilution series of Proteinase K at concentrations of 20 μg/ml, 5 μg/ml, 1.25 μg/ml, 0.31 μg/ml, 0.078 μg/ml, 0.02 μg/ml and 0.005 μg/ml. […] Reaction tubes were incubated at 60° C. in a 96-well optical plate (MicroAmp® Optical 96-Well Reaction Plate, Applied Biosystems) and the amount of released fluorescence was measured at the indicated time points using an ABI Prism 7700.

B1: Proteinase K: protease (subtilisin), Ambion (protein, UniProt P06873 106-384, looked up)
Proteinase K: AAQTNAPWGLARISSTSPGTSTYYYDESAGQGSCVYVIDTGIEASHPEFEGRAQMVKTYYYSSRDGNGHGTHCAGTVGSRTYGVAKKTQLFGVKVLDDNGSGQYSTIIAGMDFVASDKNNRNCPKGVVASLSLGGGYSSSVNSAAARLQSSGVMVAVAAGNNNADARNYSPASEPSVCTVGASDRYDRRSSFSNYGSVLDIFGPGTSILSTWIGGSTRSISGTSMATPHVAGLAAYLMTLGKTTAASACRYIADTANKGDLSNIPFGTVNLLAYNNYQA
For B1, the “maceration of liver slice” value (slices of liver; 2-5 hr) was 0%, the “maceration of liver slice” value (slices of liver; 16-24 hr) was 75% and the “ability to macerate the liver sample (in words)” value (slices of liver) was “effectively digest the liver tissue, but only after extended incubation”. The “lowest Proteinase K concentration with released fluorescence detected” value [1] was 50 ng/mL, the fluorescence signal plateau ([1]; 10 μg/ml BoDipy-labeled Casein Conjugate) was “around 30,000 fluorescence units” and the “proteolytic activity of Proteinase K without surfactant” value (Proteinase K) was “high proteolytic activity”.
